This is an account of results in the supplement of paper PMC9170038.

The subject of the data set is MS2 coat protein. The data set can be described thus: apparent KD of MS2 coat protein; designed switch direction (-1 OFF switch, 1 ON switch): 1; higher = weaker reporter binding. Put shortly: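 The buffer was Tris-HCl pH 7.5 with KCl, MgCl2, BSA, DTT, tRNA and Tween-20. In it, SNAP-549-labelled MS2 coat protein was titrated in doubling steps from 0.7 or 1.5 nM to 3 µM over chip-bound RNA switches transcribed by stalled E. coli RNA polymerase on Illumina chips. Apparent KD is the per-design median over clusters of curve fits to normalised fluorescence.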

The mark [1] stands for this setting: input ligand: microRNA oligo, concentration not stated.
[2] abbreviates: Eterna round: R95, input ligand: microRNA oligo, concentration not stated.
Setting [3] is: Eterna round: R95, input ligand: FMN 200 uM.
Where [4] appears, read: Eterna round: R95, input ligand: none.

As to “GCUCGCACGAUGACCCACAUGAGGAUCACCCAUGUGCUUGGGCAGGAUAUCUAGAUUAAGGAUGUAGAGAAGGGUCGAGCGAGC [SameState NG3 #28] (Eterna round: R96, puzzle: Same State NG 3)”, the “apparent KD of MS2 coat protein” value stood at 303 nM (input ligand: FMN 200 uM), 69.6 nM under setting [1] and 243 nM (input ligand: none).

With “GCUCGGCUGAUGGCCUACAUGAGGAUCACCCAUGUGAGUGGGCAGGAUAUCUAGAUUAAGGAUGUAGAGAAGGGCCUGCCGAGC [SameState NG3 #37] (Eterna round: R96, puzzle: Same State NG 3)”, the “apparent KD of MS2 coat protein” value runs as follows: (input ligand: FMN 200 uM) 708 nM; under setting [1], 131 nM; (input ligand: none) 496 nM.

In the case of “GCUCGUAUCACAACCAACAUGAGGAUCACCCAUGUAUGUUGGUAGGAUAUCUAUAUUAAGGAUAUAGAGAAGGGCCGAACGAGC [SameState NG3 #12] (Eterna round: R96, puzzle: Same State NG 3)”, the “apparent KD of MS2 coat protein” value by setting is: (input ligand: FMN 200 uM) 53.7 nM; under setting [1], 59.7 nM; (input ligand: none) 82.3 nM.

As for “GCUGCAAGGGCAGGAUAUGGGUUCAGAGCGGAAGUGCGCUUUGAUACAUGAGGAUCACCCAUGUCCCAGAAGGGCCCAUGCGGC [Arredibi] (Eterna round: R96, puzzle: Same State NG 2)”, the “apparent KD of MS2 coat protein” value runs as follows: (input ligand: FMN 200 uM) 19.1 nM; under setting [1], 78.4 nM; (input ligand: none) 113 nM.

With “GCUUCACAUGAGGAUCACCCAUGUCUUCGGAGUCGAGGAUAUGGUAACUGUAAACAGUUGCCAGAAGGCGAGGAGC [SS1 - Son of Teenbexe v9] (Eterna round: R96, puzzle: Same State 1)”, the “apparent KD of MS2 coat protein” value by setting is: (input ligand: FMN 200 uM) 48.8 nM; under setting [1], 55.3 nM; (input ligand: none) 66 nM.

As for “GCUUCACAUGAGGAUCACCCAUGUCUUCGGAGUCGAGGAUAUGGUAACUGUAAACAGUUGCCAGAAGGCGAGGAGC [SS1 - Son of Teenbexe v9] (puzzle: Same State 1)”, the “apparent KD of MS2 coat protein” value under setting [2] was found to be 54.6 nM.

For “GGAAUAUUCACAGGAUAUGAGUUGUAAAGUGGAUCAGAAGGGUGGGUGUUUUGCACGGUGUGUUACAUGAGGAUCACCCAUGUU [SameState NG1 #23] (Eterna round: R96, puzzle: Same State NG 1)”, the “apparent KD of MS2 coat protein” value came out at 82.4 nM (input ligand: FMN 200 uM), 241 nM under setting [1] and 418 nM (input ligand: none).

With “GGAAUAUUUACAGGAUAUGAGUUGUAAAGUCGAUCAGAAGGGUAGAUGUCUUACACGGUGUGUUACAUGAGGAUCACCCAUGUU [SameState NG1 #19] (Eterna round: R96, puzzle: Same State NG 1)”, the “apparent KD of MS2 coat protein” value runs as follows: (input ligand: FMN 200 uM) 169 nM; under setting [1], 160 nM; (input ligand: none) 218 nM.

On to “GGAAUAUUUACAGGAUAUGAUUUGUAAAUUCGAUCAGAAGGGUGGAUGUCUUACACGGUUUGUUACAUGAGGAUCACCCAUGUC [SameState NG1 #12] (Eterna round: R96, puzzle: Same State NG 1)”, for which the “apparent KD of MS2 coat protein” value (input ligand: FMN 200 uM) was found to be 452 nM, the “apparent KD of MS2 coat protein” value under setting [1] is 253 nM and the “apparent KD of MS2 coat protein” value (input ligand: none) was 376 nM.

For “GGACGUCAUCUCAAUAAUUAAACAUGAGGAUCACCCAUGUCACAGGAUAUGGAUCCUAAUUGGAUCCAGAAGGGUGUGACGUCC [Fiskers NG3ss - 40] (Eterna round: R96, puzzle: Same State NG 3)”, the “apparent KD of MS2 coat protein” value stood at 54.3 nM (input ligand: FMN 200 uM), 56 nM under setting [1] and 66.1 nM (input ligand: none).

Regarding “GGACGUCGAUCUCCUACUUAAACAUGAGGAUCACCCAUGUCACAGGAUAUGAGUCCGAUUAGGACUCAGAAGGGUGCGACGUCC [Fiskers NG3ss - 51] (Eterna round: R96, puzzle: Same State NG 3)”, the “apparent KD of MS2 coat protein” value amounted to 14 nM (input ligand: FMN 200 uM), 12.3 nM under setting [1] and 18.6 nM (input ligand: none).

As for “GGAGCCAAGGCAGGAUAUUCAUAUAAAUAAACAUGAGGAUCACCCAUGUAGGCCAGAAGGCCUUGGGAGAAGGGCCAUGGCUCG [Xeonanis - 13 mod6] (Eterna round: R96, puzzle: Same State NG 2)”, the “apparent KD of MS2 coat protein” value runs as follows: (input ligand: FMN 200 uM) 19.4 nM; under setting [1], 69.8 nM; (input ligand: none) 121 nM.

Turning to “GGAGCCAGCACCGAGGAUAUUCAUAUUAAAACAUGAGGAUCACCCAUGUAGGCCAGAAGGCCUUGGGAGAAGGCGGACUGGCUCG [Xeonanis - 11] (Eterna round: R96, puzzle: Same State 2)”, the “apparent KD of MS2 coat protein” value is, setting by setting: (input ligand: FMN 200 uM) 18.8 nM; under setting [1], 212 nM; (input ligand: none) 364 nM.

Turning to “GGAGCCAGCACCGAGGAUAUUCAUAUUAAAACAUGAGGAUCACCCAUGUAGGCCAGAAGGCCUUGGGAGAAGGCGGACUGGCUCG [Xeonanis - 11] (puzzle: Same State 2)”, the “apparent KD of MS2 coat protein” value is 28.5 nM under setting [3], 221 nM under setting [2] and 976 nM under setting [4].

For “GGAGCCGGCACUGAGGAUAUUCAUAUUAAAACAUGAGGAUCACCCAUGUAGGCCAGAAGGCCUUGGGAGAAGGCAGGCCGGCCCG [Bibimoar - 1] (puzzle: Same State 2)”, the “apparent KD of MS2 coat protein” value stood at 18.8 nM under setting [3], 177 nM under setting [2] and 276 nM under setting [4].

In the case of “GGAGCCGGCACUGAGGAUAUUCAUAUUAAAACAUGAGGAUCACCCAUGUAGGCCAGAAGGCCUUGGGAGAAGGCAGGUCGGCUCG [Arinin] (Eterna round: R96, puzzle: Same State 2)”, the “apparent KD of MS2 coat protein” value is, setting by setting: (input ligand: FMN 200 uM) 20 nM; under setting [1], 188 nM; (input ligand: none) 283 nM.

Regarding “GGAGCCGGCACUGAGGAUAUUCAUAUUAAAACAUGAGGAUCACCCAUGUAGGCCAGAAGGCCUUGGGAGAAGGCAGGUCGGCUCG [salish99_ss2_r3_075] (Eterna round: R96, puzzle: Same State 2)”, the “apparent KD of MS2 coat protein” value was 20 nM (input ligand: FMN 200 uM), 188 nM under setting [1] and 283 nM (input ligand: none).

“GGAGCCGGCACUGAGGAUAUUCAUAUUAAAACAUGAGGAUCACCCAUGUAGGCCAGAAGGCCUUGGGAGAAGGCAGGUCGGCUCG [salish99_ss2_r3_075] (puzzle: Same State 2)”: the “apparent KD of MS2 coat protein” value reads like this: under setting [3], 27.1 nM; under setting [2], 408 nM; under setting [4], 901 nM.

On to “GGAGCCGGCCUAGGAUAUUUCAUAAAGAAACAUGAGGAUCACCCAUGUAGGCCAGAAGGCCUUGGGAAGAAGGAGGUCGGCUCC [Loop Effect - G27] (Eterna round: R96, puzzle: Same State NG 2)”, for which the “apparent KD of MS2 coat protein” value runs as follows: (input ligand: FMN 200 uM) 12.4 nM; under setting [1], 29 nM; (input ligand: none) 28.7 nM.

For the sequence “GGAGCCGGCCUAGGAUAUUUCAUAGAAAAACAUGAGGAUCACCCAUGUAGGCCAGAAGGCCUUGGGAAGAAGGAGGUCGGCUCC [Loop Effect - G25] (Eterna round: R96, puzzle: Same State NG 2)”, the “apparent KD of MS2 coat protein” value by setting is: (input ligand: FMN 200 uM) 9.45 nM; under setting [1], 19.5 nM; (input ligand: none) 31.2 nM.

Consider “GGAGGACAUGAGGAUCACCCAUGUGGAUGAACGCUAGGAUAUGCGUGCAGGAAGAGUGGAGCAGAAGGAGUGGGUU [JR_SS1_Sub046] (puzzle: Same State 1)”, for which, under setting [2], the “apparent KD of MS2 coat protein” value was 21.7 nM.

Consider “GGAUCAUGACGAGGAUAUGGUACAUGAGGAUCACCCAUGUAUGUACCACGACGGAAACGUCGAAUCCAGAAGGCGUCAUGAUCG [Mat - Same State NG 2 - JL mod - D39] (Eterna round: R96, puzzle: Same State NG 2)”, for which the “apparent KD of MS2 coat protein” value worked out at 25.3 nM (input ligand: FMN 200 uM), 70.1 nM under setting [1] and 120 nM (input ligand: none).

Consider “GGAUCGGAGGCAGGAUAUGGGCUCAGAACAUGAGGAUCACCCAUGUAAAACGGCGCAAUGCGCCACCAGAAGGGCCUCCAGUCG [Esussoed] (Eterna round: R96, puzzle: Same State NG 2)”, for which the “apparent KD of MS2 coat protein” value worked out at 13.2 nM (input ligand: FMN 200 uM), 25.7 nM under setting [1] and 44.1 nM (input ligand: none).

With “GGAUGAUUAAUAGGAUAUUAUUUGUAAUUUGGUUAAGAAGGAUUAAUGAUUUAAACGACCUGUUACAUGAGGAUCACCCAUGUU [JR_SSNG1_Sub089] (Eterna round: R96, puzzle: Same State NG 1)”, the “apparent KD of MS2 coat protein” value under setting [1] is 76.5 nM.

As to “GGCAGGUGCAGGCUUGCUUGCACCUGGAGACAUGAGGAUCACCCAUGUUUGGGACAAGCUUUGCUCUUCGUCUUUUC [JL ViennaUCT Isusreraar mod 6] (puzzle: Sensor for hsa-mir-208a)”, the “apparent KD of MS2 coat protein” value under setting [3] amounted to 74.1 nM, the “apparent KD of MS2 coat protein” value under setting [2] was determined as 105 nM and the “apparent KD of MS2 coat protein” value under setting [4] worked out at 107 nM.

“GGCGAACAGGCUAACAUGAGGAUCACCCAUGUGGACUCAUGUUAGGAUAUCGGGAAGGAGGAAACCGAGAAGGGACGGUGAGCC [AK SSNG3-V2-47] (Eterna round: R96, puzzle: Same State NG 3)”: the “apparent KD of MS2 coat protein” value was found to be 18.8 nM (input ligand: FMN 200 uM), 9.25 nM under setting [1] and 82.3 nM (input ligand: none).

In the case of “GGCUAUCGGCGUACCGAUAGCUGGUAUGUACAUGAGGAUCACCCAUGUCAUGUACAGGCUUUUUGCUCGUCUUAUUG [JL-shm-2.39 JL mod] (puzzle: Sensor for hsa-mir-208a)”, the “apparent KD of MS2 coat protein” value worked out at 134 nM under setting [3], 30.3 nM under setting [2] and 149 nM under setting [4].

With “GGGCCAGCUUGUGCUGGGCCUUCGCAUGCACAUGAGGAUCACCCAUGUCGUGUACAUGCUUGGUGCCCGUCUUUCCC [Photon Torp-14] (puzzle: Sensor for hsa-mir-208a)”, the “apparent KD of MS2 coat protein” value under setting [3] turned out to be 84.5 nM, the “apparent KD of MS2 coat protein” value under setting [2] turned out to be 20.9 nM and the “apparent KD of MS2 coat protein” value under setting [4] came out at 85.8 nM.
